Assay results from patent US20160122418A1 (ARIDIS PHARMACEUTICALS, published 2016).

Experiments:
[1] = biological target: T1, Human RSV (A2) Fusion glycoprotein RSV F protein, Sino Biological Inc. (Human RSV (A2), UniProt P03420 26-529); experiment: ELISA, serial dilutions of purified AR201 on plates coated 'as described above' (RSV-EIA antigen by the legend of FIG. 6, or purified F protein); anti-human IgG-HRP
T1 construct: Bought protein; also called purified RSV F protein; recombinant human RSV F protein

[2] = biological target: T2, F protein on intact RSV particles (Example 10, strain or isolate not stated) (RSV, strain ); experiment: competition ELISA; RSV particles pre-incubated with inhibiting mAb at 20 µg/mL; competitor (coating mAb): palivizumab
T2 construct: also called RSV viral particles

[3] = biological target: T1, Human RSV (A2) Fusion glycoprotein RSV …; experiment: SPR, Biacore 2000, F protein amine-coupled to CM5 chip, antibody as analyte, Langmuir 1:1 fit
[4] = biological target: T2, F protein on intact RSV particles …; experiment: competition ELISA; RSV particles pre-incubated with inhibiting mAb at 20 µg/mL; competitor (coating mAb): AR201
Protocol: After incubation for one hour at 4° C., plates were washed and polyclonal rabbit-anti-RSV-HRP labeled antisera was added to each well. Bound viral particles were detected by colorimetric measurement. Maximum binding of RSV to the immobilized antibody in the presence of the competitor antibody was determined relative to binding in the presence of the monoclonal human IgG control antibody.

[5] = biological target: F protein of clinical RSV isolate #1 (RSV clinical isolate #1); experiment: cell-based or functional assay
[6] = biological target: T3, F protein of palivizumab-resistant clinical RSV isolate #20 (RSV clinical isolate #20, UniProt P11209 26-574); experiment: cell-based or functional assay
T3 chain: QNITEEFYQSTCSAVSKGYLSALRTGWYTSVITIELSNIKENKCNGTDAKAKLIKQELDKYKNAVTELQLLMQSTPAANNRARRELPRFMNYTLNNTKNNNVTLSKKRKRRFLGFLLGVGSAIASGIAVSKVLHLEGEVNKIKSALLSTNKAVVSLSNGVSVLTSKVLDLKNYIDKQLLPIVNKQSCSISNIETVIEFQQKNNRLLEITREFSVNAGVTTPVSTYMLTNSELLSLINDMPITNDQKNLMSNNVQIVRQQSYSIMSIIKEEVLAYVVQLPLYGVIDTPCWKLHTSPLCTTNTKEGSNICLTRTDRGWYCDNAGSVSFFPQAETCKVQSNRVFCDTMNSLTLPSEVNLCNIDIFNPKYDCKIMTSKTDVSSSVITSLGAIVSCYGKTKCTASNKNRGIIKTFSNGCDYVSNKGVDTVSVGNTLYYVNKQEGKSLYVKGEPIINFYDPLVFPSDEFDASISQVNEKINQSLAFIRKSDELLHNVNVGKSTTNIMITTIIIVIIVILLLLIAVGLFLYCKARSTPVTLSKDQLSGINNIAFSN

B1: AR201 (antibody, V domains shown)
VH: LVQLRESGPGLVKPSQTLSLTCSVSGASINLYDYFWGWIRQAPGRGPEWIGYISGSTYYNPSLKRRATISVDTSKSQFFLELTSVTAADTAVYYCARDVGWGPQYYYGLDVWGQGTTVTVSS
VL: DLVLTQSPGTLSLSPGERATLSCRASHSVQSTSLAWYQQKRGQAPRLLIYGGSSRVTGIPDRFSGSGSGTDFTLTISRLEPEDFAVYYCQQSDRSPPITFGQGTRLEMK
notes: Recombinant human IgG1 made in HEK293T cells; kappa light chain cloned whole; The claims' numbering is used here; also called KBRV201; human monoclonal antibody AR201
EC50 [1]: 0.103 nM | % binding of RSV to the coating mAb relative to control IgG [2]: 40.8% | Kd [3]: 0.058 nM | koff [3]: 2.7e-05 s⁻¹ | kon [3]: 470000 M⁻¹ s⁻¹ | % binding of RSV to the coating mAb relative to control IgG [4]: 22.5% | IC50 of neutralization, infectivity assay on Hep2 cells [5]: 1700 nM | IC50 of neutralization, infectivity assay on Hep2 cells [6]: 1710 nM
